The target in assay [1] is T1, binding between TAK1 and TAB1 (Homo sapiens, UniProt O43318).
T1 construct: amino acid Met at amino acid position 1 to amino acid Ser at amino acid position 579; made in house; host or cells: COS-7 cells transfected with pCOS-TAK1 or pCOS-FTAB1; unpurified cell extracts
T1 sequence (O43318 1-579 isoform O43318-2): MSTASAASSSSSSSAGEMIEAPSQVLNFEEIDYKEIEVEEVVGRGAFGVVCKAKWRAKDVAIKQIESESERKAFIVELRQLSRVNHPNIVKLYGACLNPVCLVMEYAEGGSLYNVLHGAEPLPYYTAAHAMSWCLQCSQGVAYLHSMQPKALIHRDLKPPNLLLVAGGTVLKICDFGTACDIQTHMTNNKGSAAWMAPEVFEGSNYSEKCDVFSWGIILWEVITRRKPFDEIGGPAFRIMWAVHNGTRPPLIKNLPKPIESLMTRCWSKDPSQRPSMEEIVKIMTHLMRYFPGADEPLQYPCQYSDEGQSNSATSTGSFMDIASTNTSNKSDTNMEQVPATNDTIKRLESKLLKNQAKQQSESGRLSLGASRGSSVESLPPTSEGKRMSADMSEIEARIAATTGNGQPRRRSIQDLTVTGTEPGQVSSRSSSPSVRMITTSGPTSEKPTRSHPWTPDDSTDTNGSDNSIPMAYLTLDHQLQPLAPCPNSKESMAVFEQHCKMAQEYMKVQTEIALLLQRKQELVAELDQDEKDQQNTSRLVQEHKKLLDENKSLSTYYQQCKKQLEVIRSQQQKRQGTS
In words: Immunoprecipitation and Western analysis binding-inhibition study using synthetic peptides. The arrangement: dose or concentration left out as unconfirmed. The note with it: COS-7 cell extracts with TAK1-6×His or FLAG-TAB1; compared to no peptide. An excerpt:
The fact that a synthetic peptide containing the amino acid sequence identified as the TAK1 binding region can inhibit binding between TAK1 and TAB1 was confirmed by the following experiment. Thus, a peptide TAB1C-1 (SEQ ID NO: 40) comprising 16 amino acid residues containing the TAK1 binding region of TAB1 described in the above Example and a control peptide TAB1C-2 (SEQ ID NO: 41) containing an amino acid sequence from Gln at position 437 to Gln at position 451 of TAB1 were each synthesized, and were evaluated for their effects on the binding between TAK1 and TAB1. The TAK1 and TAB1 used in the present invention were prepared in the following manner. […]
Subsequently, cell extracts each containing TAK1-6×His or FLAG-TAB1 and a 5 mM synthetic peptide were mixed to a final concentration of […], respectively, and then incubated overnight at 4° C. It was then immunoprecipitated using anti-TAK1 antibody, and the amount of bound TAK1 and TAB1 was evaluated by determining the amount of TAB1 that coprecipitated by Western analysis. […] After it was blocked using a TBS solution containing 5% BSA, TAK1 in the immunoprecipitate was detected using anti-TAK1 antibody (manufactured by SantaCruz) and the coprecipitataed FLAG-TAB1 was detected using anti-FLAG M2 antibody (manufactured by Kodak). […]

For assay [2], the target named is T2, binding between the recombinant MBP-TAB1C-FLAG polypeptide and the recombinant TAK1 polypeptide (Homo sapiens, UniProt O43318).
T2 construct: amino acid Met at amino acid position 1 to amino acid Ser at amino acid position 579; made in house; host or cells: TAK1-6xHis: Sf9/baculovirus; MBP-TAB1C-FLAG: E. coli periplasm (pMAL-p2)
T2 sequence (O43318 1-579 isoform O43318-2): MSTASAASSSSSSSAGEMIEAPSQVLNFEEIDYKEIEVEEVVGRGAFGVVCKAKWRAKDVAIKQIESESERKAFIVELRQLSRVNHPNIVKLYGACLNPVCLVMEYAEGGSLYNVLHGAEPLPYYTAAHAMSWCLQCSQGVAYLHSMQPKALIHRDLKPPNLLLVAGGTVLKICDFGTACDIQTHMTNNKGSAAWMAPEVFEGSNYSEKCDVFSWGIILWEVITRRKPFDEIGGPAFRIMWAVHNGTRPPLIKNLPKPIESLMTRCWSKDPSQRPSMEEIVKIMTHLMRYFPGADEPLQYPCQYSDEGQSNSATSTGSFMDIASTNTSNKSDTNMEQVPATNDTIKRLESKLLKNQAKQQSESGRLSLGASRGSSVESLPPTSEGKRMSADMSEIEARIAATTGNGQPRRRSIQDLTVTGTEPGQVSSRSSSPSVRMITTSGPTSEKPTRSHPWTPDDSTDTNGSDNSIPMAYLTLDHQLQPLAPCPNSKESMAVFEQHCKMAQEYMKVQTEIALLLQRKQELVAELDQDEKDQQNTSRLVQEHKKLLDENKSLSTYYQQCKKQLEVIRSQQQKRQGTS
In words: ELISA binding-inhibition study with TAB1-FLAG as inhibiting substance. Conditions: serially diluted TAB1-FLAG added together with MBP-TAB1C-FLAG. The protocol: It was investigated whether the recombinant human TAB1-FLAG polypeptide used as an inhibiting substance inhibits binding between the recombinant MBP-TAB1C-FLAG polypeptide and the recombinant TAK1 polypeptide.
In a similar manner to that in the above 5-1 (2), the recombinant human TAK1-6×His polypeptide was immobilized and was blocked. Then the recombinant human TAB1-FLAG polypeptide that was serially diluted in the dilution buffer was added as a binding-inhibiting substance to each well together with 16.5 μl each of the recombinant MBP-TAB1C-FLAG polypeptide and incubated.

Assay [3] deals with T3, human TAK1-6×His polypeptide (Homo sapiens, UniProt O43318).
T3 construct: amino acid Met at amino acid position 1 to amino acid Ser at amino acid position 579; made in house; host or cells: Sf9 insect cells, recombinant baculovirus
T3 sequence (O43318 1-579 isoform O43318-2): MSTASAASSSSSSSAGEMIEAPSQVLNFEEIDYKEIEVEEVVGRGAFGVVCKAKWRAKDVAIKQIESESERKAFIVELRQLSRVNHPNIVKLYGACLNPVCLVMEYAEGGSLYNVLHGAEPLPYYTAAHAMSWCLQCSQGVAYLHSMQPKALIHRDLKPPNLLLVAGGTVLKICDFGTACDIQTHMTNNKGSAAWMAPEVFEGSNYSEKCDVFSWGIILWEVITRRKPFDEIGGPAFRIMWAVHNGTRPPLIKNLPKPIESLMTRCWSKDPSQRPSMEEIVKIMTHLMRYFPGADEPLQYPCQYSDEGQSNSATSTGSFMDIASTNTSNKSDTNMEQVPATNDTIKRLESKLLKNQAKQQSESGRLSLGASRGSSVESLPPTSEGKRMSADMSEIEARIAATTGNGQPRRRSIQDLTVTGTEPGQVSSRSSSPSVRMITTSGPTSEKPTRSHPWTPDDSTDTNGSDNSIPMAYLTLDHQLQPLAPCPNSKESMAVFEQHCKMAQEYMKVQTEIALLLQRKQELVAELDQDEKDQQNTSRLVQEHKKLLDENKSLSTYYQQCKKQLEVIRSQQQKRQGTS
As to the kind of experiment: ELISA in vitro binding-evaluation system: MBP-TAB1C-FLAG on immobilized TAK1-6×His. Conditions: 100 ng TAK1-6×His per well; no increase where TAK1-6×His was not immobilized. An excerpt:
Using the purified product obtained as above an ELISA system was constructed to detect in vitro an interaction between the recombinant human TAB1 polypeptide or the recombinant MBP-TAB1C-FLAG polypeptide and the recombinant human-TAK1 polypeptide. In the ELISA system it is intended to contact the recombinant human TAB1-FLAG polypeptide or the human MBP-TAB1C-FLAG polypeptide to a 96-well immunoplate to which the human TAK1-6×His polypeptide had been previously immobilized and thereby to detect the recombinant human TAB1-FLAG polypeptide or the recombinant MBP-TAB1C-FLAG polypeptide using a primary and secondary antibody.
(1) The purified product of human TAK1-6×His polypeptide was diluted in the immobilization buffer (0.1 M NaHCO3, 0.02% NaN3, pH 9.6). To each well of a 96-well immunoplate (manufactured by Nunc) was added 100 μl each of the diluted aqueous solution (equivalent to 100 ng of the human TAK1-6×His polypeptide), and the plate was incubated overnight at 4° C. […]
After each well was washed five times with the wash buffer, 100 μl of the color development solution (the substrate buffer; p-nitrophenyl phosphate dissolved to 1 mg/ml in 50 mM NaHCO3, 10 mM MgCl21 pH 9.8, manufactured by Sigma) was added to each well and was incubated at room temperature, and then absorbance at 405 nm was determined using a microplate reader (Model 3550, manufactured by BIO-RAD).

With “TAB1C-1: peptide comprising 16 amino acid residues containing the TAK1 binding region of TAB1 (SEQ ID NO: 40) (CVEPYVDFAEFYRGRK; OTHER INFORMATION: Description of Artificial Sequence: Synthetic peptide)”, the “effect on binding between TAK1 and TAB1: amount of coprecipitated FLAG-TAB1” value in assay [1] is given as “a decrease in the amount of coprecipitated FLAG-TAB1 was observed”. The same measure, in the same setting: to “TAB1C-2: control peptide containing an amino acid sequence from Gln at position 437 to Gln at position 451 of TAB1 (SEQ ID NO: 41) (CQSPTLTLQSTNTHTQ; OTHER INFORMATION: Description of Artificial Sequence: Synthetic peptide)” belongs “no decrease in binding between TAK1 and TAB1 was observed”.

B1: TAB1-FLAG: full-length human TAB1 with a FLAG tag added to the carboxy terminal (SEQ ID NO: 11) (protein)
chain: MAAQRRSLLQSEQQPSWTDDLPLCHLSGVGSASNRSYSADGKGTESHPPEDSWLKFRSENNCFLYGVFNGYDGNRVTNFVAQRLSAELLLGQLNAEHAEADVRRVLLQAFDVVERSFLESIDDALAEKASLQSQLPEGVPQHQLPPQYQKILERLKTLEREISGGAMAVVAVLLNNKLYVANVGTNRALLCKSTVDGLQVTQLNVDHTTENEDELFRLSQLGLDAGKIKQVGIICGQESTRRIGDYKVKYGYTDIDLLSAAKSKPIIAEPEIHGAQPLDGVTGFLVLMSEGLYKALEAAHGPGQANQEIAAMIDTEFAKQTSLDAVAQAVVDRVKRIHSDTFASGGERARFCPRHEDMTLLVRNFGYPLGEMSQPTPSPAPAAGGRVYPVSVPYSSAQSTSKTSVTLSLVMPSQGQMVNGAHSASTLDEATPTLTNQSPTLTLQSTNTHTQSSSSSSDGGLFRSRPAHSLPPGEDGRVEPYVDFAEFYRLWSVDHGEQSVVTAPGTGGSDYKDDDDK
modifications: C-terminal FLAG tag
As for B1, the “inhibition of binding between MBP-TAB1C-FLAG and TAK1-6×His, absorbance” value in assay [2] is listed as “decrease in absorbance dependent on the concentration”.

B2: MBP-TAB1C-FLAG: fusion polypeptide of 81 amino acids at the carboxy terminal of human TAB1 and maltose-binding protein, with FLAG tag (protein)
chain: ASTLDEATPTLTNQSPTLTLQSTNTHTQSSSSSSDGGLFRSRPAHSLPPGEDGRVEPYVDFAEFYRLWSVDHGEQSVVTAPDYKDDDDK
modifications: left off: large carriers
For B2, in assay [3], the “binding to immobilized human TAK1-6×His polypeptide, absorbance at 405 nm” value is on record as “absorbance increased depending on the concentration”.

For the origin of these results see patent publication US6551840B2, “Method of screening TGF-β-inhibiting substances” (Chugai Seiyaku Kabushiki Kaisha, priority 1997, dated 2003).
